Assay results as given in CN113402607A (BEIJING EASTERN BIOTECH CO LTD, dated 2021).

How the values were obtained:
[1] = molecular target: LAP-TGFβ1抗原 (coated antigen) (UniProt P01137 30-390, limits assumed); assay: competition ELISA on coated LAP-TGFβ1; competitor biotin-labelled 28G11 at 1 μg/ml
[2] = molecular target: LAP-TGFβ1 overexpressed on cells (过表达LAP-TGFβ1的CHO细胞) (UniProt P01137 30-390, limits assumed); assay: cell-based or functional assay
Sequence of LAP-TGFβ1 overexpressed on cells (过表达LAP-TGFβ1的CHO细胞) (P01137 30-390 limits assumed): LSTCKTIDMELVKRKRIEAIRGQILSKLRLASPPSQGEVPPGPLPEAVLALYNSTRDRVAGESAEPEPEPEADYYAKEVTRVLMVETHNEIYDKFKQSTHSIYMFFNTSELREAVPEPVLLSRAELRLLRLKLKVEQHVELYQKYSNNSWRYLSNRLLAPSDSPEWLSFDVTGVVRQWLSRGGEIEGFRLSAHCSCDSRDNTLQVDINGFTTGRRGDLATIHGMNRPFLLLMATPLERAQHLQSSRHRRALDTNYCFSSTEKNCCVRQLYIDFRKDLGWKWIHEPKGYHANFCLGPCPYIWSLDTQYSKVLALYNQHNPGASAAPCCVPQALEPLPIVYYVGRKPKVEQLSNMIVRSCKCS

Sequence of LAP-TGFβ1抗原 (coated antigen) (P01137 30-390 limits assumed): as above

IC50 [1] [µg/mL] | IC50(μg/ml), 抑制细胞表面TGFβ1的释放 (PAI-LUC Mv.1.lu reporter cells, luciferase) [2] [µg/mL] | Binder
0.0557 | – | 抗LAP单克隆抗体 A-6 (全抗, mouse IgG2a / mouse Ck) (antibody, V domains shown, Full antibody made in HEK293E from vector pTSE) VH: QVKLQESGPELVKPGASVKISCKASGYTFTDYNMHWVKQSHGKSLEWIGYFYPYNGGTGYKQKFKSKATLTVDNSSSTAYMELRSLTSEDSAVYYCARNHYYYYAMDYWGQGTSVTVSS VL: DIVMTQTPSSLAVSAGEKVTMSCKSSQSLLNSRTRKNYLAWYQQKPGQSPKLLIYWASTRESGVPDRFTGSGSGTDFTLTISSVQAEDLAVYYCKQSYNLPWTFGGGTKLEIKA
0.0526 | 1.69 | 抗LAP单克隆抗体 A-5 (全抗, mouse IgG2a / mouse Ck) (antibody, V domains shown, Full antibody made in HEK293E from vector pTSE) VH: EVQLQQSGAVLVRPGDSVKLSCKASGYSFTRSWINWVKQRPGQGLEWIGNIYPSDSYTNYNQKFKDKATLTVDKSSSTAYMQLRSPTSEDSAVYYCTNYYLYYFDYWGQGTTLTVSS VL: DIVLTQSPSSLAVSTGEKVTMSCKSSQSLLNSRTRKSYLAWYQQKPGQSPKLLIYWTSIRESGVPDRFTGNGSGTDFTLTISSVQAEDLAVYYCKQSYNLFTFGGGTKLEMKR
0.00805 | – | 抗LAP单克隆抗体 A-4 (全抗, mouse IgG2a / mouse Ck) (antibody, V domains shown, Full antibody made in HEK293E from vector pTSE) VH: EVKLQESGPGLVAPSQSLSITCTVSGFSLTTYGVSWVRQPPGKGLEWLGIIWGDGTTIYQSGLISRLSISKDDSKSQVFLKLSSLQTDDTATYYCAKHYFVMDYWGQGTSVTVSS VL: DIVLTQSPSSLAVSAGEKVTMNCKSSQSLLNSRIRKNYLAWYQQKPGQSPKLLIYWASTRESGVPDRFTGSGSGTDFTLTISSVQAEDLAVYYCKQSYNLWTFGGGTKLEIKA

More lines, now with the values behind:

Binder | IC50 [1] [µg/mL] | IC50(μg/ml), 抑制细胞表面TGFβ1的释放 (PAI-LUC Mv.1.lu reporter cells, luciferase) [2] [µg/mL]
抗LAP单克隆抗体 A-2 (全抗, mouse IgG2a / mouse Ck) (antibody, V domains shown, Full antibody made in HEK293E from vector pTSE) VH: EVQLEESGAELVRSGASVKLSCTASGFNFNDYYMHWVKQRPEQGLEWIGWIDPENGDTEYAPKFQVKATMTADTSSNTAYLHLSSLASEDTAVYYCNTPTEDMDYWGQGTSVTVSS VL: DIVMTQSPSSLAVSAGEKVTMSCKSSQSLFNSRTRKNYLAWYQQKPGQSPKLLIYWASTRGSGVPDRFTGSGSGTDFTLTISSVQAEDLAVYYCKQSYNLLTFGAGTKLELKA | 0.0764 | –
抗LAP单克隆抗体 A-1 (全抗, mouse IgG2a / mouse Ck) (antibody, V domains shown, Full antibody made in HEK293E from vector pTSE; also called A-1抗体) VH: EVQLEQSGPELKKPGETVKISCKASGYTFTSYGMNWVKQAPGKALKWMGWINTYTGEPTYADDFKGRFAYSLEATANTAYLQIYNLKNEDTATYFCARSGRYTRPLYYIMDFWGQGTSVTVSS VL: not shown | 0.0972 | 0.741
抗LAP单克隆抗体 A-3 (全抗, mouse IgG2a / mouse Ck) (antibody, V domains shown, Full antibody made in HEK293E from vector pTSE) VH: EVKLQESGAELVMPGASVKMSCKASGYTFTDYWMHWVKQRPGQGLEWIGAIDTSDSYTSYNQKFKGKATLTVDESSSTAYMQLSSLTSEDSAVYYCARKALSGYFDVWGAGTTVTVSS VL: DIVLTQTPSSLSASLGGKVTITCKASQDIYKYIAWYQHKPGKGPRLLIHYTSTLQPGIPSRFSGSGSGRDYSFSISNLEPEDIATYYCLQYDNLRTFGGGTKLEIKA | 0.00695 | –
